The test system of this experiment is Hela cells. Briefly: Flow cytometry binding to Hela cells. It is filed as cell-based, human. To be noted: transfection supernatant, FIG. 6. How it is done:
The binding activity of the antibodies to Hela cells (ATCC® CCL-2, provided by COBIOER) and to RPTEC/TERT1 cells (ATCC® CRL-4031, provided by COBIOER) was tested by flow cytometry using the transfection supernatants. Briefly, target cells were digested with 0.02% EDTA-2Na, centrifuged at 1500 rpm for 3 mins, and resuspended with PBS. After counting, the cells were added to a 1.5 ml centrifuge tube with 1×10^6 cells per tube, centrifuged at 1500 rpm for 5 minutes, and the supernatant was discarded. Then all the operations were carried out on an ice bath. 100 μL of transfection supernatant was added to each 1.5 ml centrifuge tube. Blank cells, blank cells plus secondary antibody, medium and HEK293 supernatant were set up as the controls. The reaction was performed on an ice bath for 1 hour. Then the cells were pelleted and washed twice with PBS. The secondary antibody, goat anti-Human IgG (PE, abcam, ab98596), was diluted (1:200) and added using 100 μL per tube. The reaction was performed on an ice bath for 1 hour in the dark. The cells were pelleted again and washed twice with PBS, resuspended in 300 μL PBS, and FL2 fluorescence readings were measured by cytometry. The results were analyzed by FlowJo™10 software.
Anti-FOLR1 antibody binding to Hela and RPTEC/TERT1 cells was tested by FACS. The study was carried out as described above. […]
(In flow cytometry, cells or beads pass a laser one at a time.)

B1: F40: anti-FOLR1 antibody clone; "Clone F40 has a different HCDRs and LCDRs, and with different HFR and LFR" (antibody, V domains shown)
VH: EVQLLESGGGVVQPGRSLRLSCAASGFTFSSYAMHWVRQAPGKGLEWVAVISYDGSNKYYADSVKGRFIISRDNSKNTVYLQMNSLRAEDTAVYYCARPTYVFTYTGSSFDYWGQGTQVTVSS
VL: DIQVTQSPSSLSASLGDTVSITCRASRGLTDSVAWYQQKPGQAPKLLIYAASTLQSGVPSRFGGSGSGSYFTLTITSLQPEDVATYYCQNYKSAPWTFGQGTKVEIK
As for B1, the Hela cell binding result was “weakly positive”.

The record behind these values is patent publication US20240261427A1, “LINKERS, DRUG LINKERS AND CONJUGATES THEREOF AND METHODS OF USING THE SAME” (ProfoundBio US Co., priority 2021, published 2024).
